Measurements published in PMC4620443, “Screening and Identifying a Novel ssDNA Aptamer against Alpha-fetoprotein Using CE-SELEX”.

T1: alpha-fetoprotein (AFP) (UniProt P02771 19-609)
T1 sequence: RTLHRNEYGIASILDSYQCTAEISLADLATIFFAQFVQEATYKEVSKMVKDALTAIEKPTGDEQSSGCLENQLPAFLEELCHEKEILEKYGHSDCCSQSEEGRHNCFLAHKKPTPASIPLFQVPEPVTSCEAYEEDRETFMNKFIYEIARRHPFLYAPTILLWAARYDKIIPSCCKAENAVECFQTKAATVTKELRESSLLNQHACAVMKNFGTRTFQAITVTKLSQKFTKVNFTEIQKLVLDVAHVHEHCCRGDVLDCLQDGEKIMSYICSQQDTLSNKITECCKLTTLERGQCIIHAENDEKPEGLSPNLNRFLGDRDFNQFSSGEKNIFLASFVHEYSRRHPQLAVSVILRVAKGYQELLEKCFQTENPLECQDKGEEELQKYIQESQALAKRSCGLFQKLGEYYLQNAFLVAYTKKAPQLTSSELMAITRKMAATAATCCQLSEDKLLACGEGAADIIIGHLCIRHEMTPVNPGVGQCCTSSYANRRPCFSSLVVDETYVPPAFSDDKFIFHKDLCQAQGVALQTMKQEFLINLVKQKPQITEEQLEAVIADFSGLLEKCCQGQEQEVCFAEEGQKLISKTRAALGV

B1: AP244 (ssDNA)
DNA: GTGACGCTCCTAACGCTGACGGCCCGTCAATCCCCGCGTATCCATTGGTCCTTTACCTGTCCGTCCGAACCAATC
B2: AP211 (ssDNA)
DNA: GTGACGCTCCTAACGCTGACTTTTTGGGAATGCGTATGTATGCTCGCCACGTACGCCTGTCCGTCCGAACCAATC
B3: AP273 (ssDNA)
DNA: GTGACGCTCCTAACGCTGACTCAGGTGCAGTTCTCGACTCGGTCTTGATGTGGGTCCTGTCCGTCCGAACCAATC
B4: AP250 (ssDNA)
DNA: GTGACGCTCCTAACGCTGACACAGTTGCTAAGAGCCGCCTCTGAACCTATCGAGGCCTGTCCGTCCGAACCAATC
B5: AP206 (ssDNA)
DNA: GTGACGCTCCTAACGCTGACTTTTAATTCTTGTTTATTGGTATATCCGCCTCTGACCTGTCCGTCCGAACCAATC

Molecular target: T1, alpha-fetoprotein (AFP)
Experiment: capillary electrophoresis (CE-LIF); CE-LIF: 10 uM FAM-aptamer with 100 ug/ml AFP, 25 C, PVA-coated capillary, -8 kV with 0.5 psi; CE buffer composition and pH not given in the material
Conditions: protein: commercial; label: 5' 6-FAM

Binder	Kd	binding result
B1	4800 nM	–
B2	–	no binding
B3	500 nM	–
B4	–	binds
B5	–	binds
